Assay results taken from the nanobody polyreactivity screen of Harvey et al. (2022).

Experiment: yeast display, Sf9 membrane polyspecificity reagent, FACS + sequencing; frameworks hold sequencing errors
How it was run: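 Polyreactivity labels are assigned by the sorting gate from which each nanobody was recovered. The gates were low and high (top ~1%), set on anti-HA fluorescence for expression and streptavidin fluorescence for reagent binding. Before sorting, galactose-induced (36–48 hours) yeast display cells were stained for 1 hour at 4 °C with 10% biotinylated, detergent-solubilized Sf9 membrane reagent.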

Sequence	polyreactivity (PSR sort gate)
QVQLVESGGGLVQAGGSLGLSCAASGSIFTNYAMGWYRQAPGKERELVAAISVGGGRTYYADSVKGRFTISRDNAKNTVDLQMNSLKPEDTAVYYCAARYPFGSLGRYGYWGQGTQVTVSS	high polyreactivity
QVQLVESGGGLVQAGGSLRLSCAASGFIFAGYPMGWYRQAPGKERELVAGITRNGGSTYYADSVKGRFTISRDNAKNTVYLQMNSLKPEDPAVYYCAATRYSFGPRRVDYWGQGTQVTVSS	high polyreactivity
QVQHVESGGGLVQAGGSLRLSCAASGRIFQRNTMGWYRQAPGKERELVARINYSGGSTYYADSVKGRFTISRDNAKTTVYLQLNSLKPEDTAVYYCAARVWTWSIYYPAGLSSYDYWGQGTQVTVSS	low polyreactivity
QDQLVESGGGLVQAGGSLRLSCAASGLTYYVYSMGWYRQAPGKERELVARITWSGGSTYYADSVKGRFTISRDNAKNTVYLQMNSVKAEDTAVYYSAAEWSEESDYWGQVTQVTVSS	low polyreactivity
QVQLVESGGGLVQAGGSLRLICAASGSIFFYNAMGWYRQAPGKERELVAAITTRGGSTYYADSVKGRFTISRDNAKNTVYLQMNSLKPEDTAVYYCARSSRGKLDYWGQGTQVTVSS	low polyreactivity
QVHLVESGGGLVQAGGSLRLSCAASARIFRYYTMGWNRQAPGKERELVAAISVSGGSTYYADSVKGRFTSSRDNAKNTVYILMNSLKPEDTAVYYCAAPFVWSSYRGYDYWGQGSQVTVSS	high polyreactivity
QVHLVESGGGLVQAGGSLRLSCAASGRIFTRNAMVWYRQAPGKERELVAAISHSGGSTYADSVKGRFTISRDNAKNTVYLQMNSLKPEDTAVYYCAAKYYFEWNSALDYWGQGTQVTVSS	low polyreactivity
QVQLVESGGGLVQAGGSLRLSCAASGRIFYIYAKGWYRPAPGKERELVAASTNGGSTNYAHSVKGRFTISRDNAKNTVYLQMNSLKPEDTEVYYCATDYVGYSFGMYYWGEGTQVTVSS	low polyreactivity
QVQHVESGGGLVQAGGSLRLSCAASGSTFDYYAMGWYRQAPGKERELVAAISDSARSTFYADSVKGRFTISRDNAKNTVYLQMNSLKPEDTAVYYCAAYFWSYWRSEGYSWGQGTKVTVSS	high polyreactivity
QVQLVESGGGLVQAGGSLRLSCAASGSIFAVYAMGWYRQAPGKERELVAAISVSGGRTYYADSVKGRFTISRDNAKNTVYLQMNSLKPEDTAVYYCAARSLSYYRSRAAQYGWGYYYWGQGTQVTVSS	high polyreactivity
QVQLVESGGGLVQAGGSLRLSCAASGRIFLSNALGWYRQAPGKERELVAAINSGGNTDYADSVKGRFTISRDNAKNTVYLQMNSLKPEDTAVYYCAADAFSWDHDYWGQGTQVTVSS	low polyreactivity
QVQLVESGGGLVQAGGSLRLSCAASGFTFIGNAMGWYRQAPGKERELVAAISWRGGSTYYADSVKGRFTISRDNAKNTVYLQMNSLKPEDTAVYYCNKVPRRVSRSERDYWGQGTQVTVSS	high polyreactivity
QVQLVESGGGLVQAGGSLRLSCAASGRIFGDNTMGWYRQAPGKERELVAAISFTGGSTYYADSVKGRFTISRDNAKNTVYLQMNSLKPEDTAVYYCNADWVSTWGYDYWGQGTQVTVSS	low polyreactivity
QVQLVESGGGLVQAGGSLRLSCAASGNTFPRYVMGWYRQAPGKERELVADITRRGGSTYYADSVKGRFTISRDNAKNTVYLQMNSLKPEDTAVYYCAALYLYGHQFYNDYYYWGQGTQVTVSS	high polyreactivity
QVQLVESGGGLVQAGGSLRLSCAASGSIVVKYDMSWYRQAPGKERELVAAISGSGGSTYYADSVKGRFTISRDNAKNTVYLQMNSVKPEDTAVYYCAADDYFYSGRYGFEYWGQGTQVTVSS	low polyreactivity
QVQLVESGGGLVQAGGSLRLSCAASGSTFPRNDMGWYRQAPGNERELVAAISRGGSTNYADSVKGRFTISRDNANNTVYLQMNSMKPEDTAVYYCAAQIFESAYGMDYWGQGTQVTVSS	low polyreactivity
QVQLVESGGRLVQAGGSLRLSCAASGGTLTSNPMGWYRPAPGKERELVAAINKSGGSTYYADSVKGRFTISRDNAKNTVYLQMNSLKPEDTAVYYCAARFYYWVSGGLVKYNYWGQGTQVTVSS	high polyreactivity
QVQLVESGGGLVQAGGSLRLSCAASGRTFVHYTMGWYRQAPGKERELVATISTSGGSTSYADSVKGRFTISRDNAKNTVYVQMNSLKPEDTAVYYCAARWYFPDRVKYVYWGQGTQVTVSS	low polyreactivity
QVQLVESGGGLVQAGGSLRLSSAASGITFYYYAMGWYRQAPGKERELVAAINWSGTSTYYADSVKGRFTISRDNAKNTVYLQMNSLKPEDTAVYYCNAERGRSFWWAYDYWGQGTQVTVSS	low polyreactivity
QVQLVESGGGLVQAGGSLRLSCAASGSIFNINAMGWCRQAPGKDRELVATITSGGTTSYADSVKGRFTISRDNAKNTVYLQMNSLKPEDTAVYYCNAEIYPIVKAGRQHPRRYDYWGQGTQVTVSS	low polyreactivity
QVQLVESGGGLVQAGGSIRLSCAASGFTFAKYSMGWYRQAPVKERELVATITRGGNTYYADSVKGRFTISRDNAKNTVYLQMNSLKPEDTAVYYCAASWYRFSQYKYYYWGQGTKVTVSS	high polyreactivity
QVQLVESGGGLFQAGGSLRVSCAASGSTFYLYAMGWSRQAPGKEREWVAAISRRGGTTNYADSVKGRFTISRDNAKNSVYLQMNSLKPEDTAVYDCGADYQSVGGAEYDYWGQGTQVTVSS	high polyreactivity

Sequence	polyreactivity (PSR sort gate)
QVQLVDSGGGLVQAGGSLRLSCAASGRIFGSYVMGWYRQAPGKERELVAAITDGGTTYADSVKGRFTISRDNAKNTVYLQMNSLKPEDTAVYYCAADLYDWPLAWWEYYYWGQGTHVTVSS	low polyreactivity
QVQLVESGGGLVQAGGILRLSCAASGNIFAFYAMGWYRQAPVKERELVAAITDGTTTNYADSVKGRFTISRDNAKNTVYLQMNSLIPEDTAVYYSAADTGWWPWLERFRHYYYWGQGTQVTVSS	low polyreactivity
QVQLVESGGDLVQAGGSLRLSCAASGRSYKYNDMGWYRQAPRKERELVADISSGVSTYYADSVKGRFTISRDNAKNTVYLQMNSLKPEDTAVYYFNAYSDGDEDYWGQGTQVTVSS	low polyreactivity
QVQLVESGVGLVQAGGSLRLSCAASGIITFYNAMGWYRQAPGKERELVAAITWSGGSTYYADSVKGRFTISRDNAKNTVYVQLNSLKPEDTAVYYCAADVVSVVYLPFVNGGDYWGLGTQVTVSS	low polyreactivity
QVQLVESGGGLVQAGGSLRLSCAASGITFGWYAMGLYRQAPGKERELVAAISTGSSTYYADSVKGRFTISRDNAKNTVYLQMNSLKPEDTAVYYCNAYPGPSGTLYVTPYDYWGQGTQVTVSS	high polyreactivity
QVQLEESGGGLVQAGGSLRLSCAASGSTFYSYVMGWYRQAPGKERELVAAISSIGGSTYYADSVKGRFTISRDNAKNTVYLQMNSLKPEDTAVYYCAAEPPGSTYEGGYWGQGTQVTVSS	low polyreactivity
QVQLVESGGGLVQAGGSLRLSCAASGFIFSWYAMGWYRQAPGKERELVAAITSGGSTYYADSVKGRFTISRDNAKNTFYLQMNSLKPEDTAVYYCGTVVTYRYAFPYGYWGQGTQVTVSS	high polyreactivity
QVQLVESGGGLVQAGGSLRLSCAASGFIFPRYAMGWYRQAPGQERELVAAISKSGGRTYYADSGKGRFTISRDYAKNTFYLQMNSLNPEDTAVYYCAAGRISRFSRYYYWGQGTQVTVSS	high polyreactivity
QVQLVESGGGLVQAGGSLRLSCAASGSIFYSYAMGWSRQAPGKERELFAAISYSTTSTYYADSVKGRFTISCDNAKNTVYLQMKSLKPEDTAVYYCAVDYIIWYDGYLLYYWGQGTQVTVSS	low polyreactivity
QVQLVESGGGLVQAGGSLRLSCAASGRIFARYAMGWYRPAPGKERELVAAITKSVGSTYYADSVKGRFTISRDNAKYTVYLQMNRLKPEDTAVYYCNAVARGYGYDYWGQGTQVTVSS	high polyreactivity
QVQLVESGGGLVQAGGSLRLSCAASGLIFPKNAMGWYRQAPGKERELVAAISSSDSSTYADSVKGRFTISRDNAKNTVYLQMNSLKPEDTAVYYCAAASYNWLDWVTREYWGQGTQVTVSS	low polyreactivity
QVQLVESGGGLGQAGGSLRLSCAASGRIFYRNAMGWYRQAPGKERELVAAISSSGSTNYADSVKGRFTISRDNAKNTVYLQMNSLKPEDTAVDYCNDVVRWGYGYDYWGQGTQVTVSS	high polyreactivity
QVQLVESGGGLVQAGGSLRLSCAASGRIFNFYAMGWYRQAPGKERELVASITSGGRTSYADSVKGRFTISRDNAKNTVYLQMNSLKPEDTAVYYCAAVLFGYPRTIGTWYDRYYYWGQGTQVTVSS	high polyreactivity
QVQLVESGGGLVQAGGSLRLSCAASGSTFPHYAMGWYRQAPGKERELVAAISWSGSSTYYADSVKGRFTISRDNAKNTVYLQMNSLKPEDTAVYYCNKLPRRAPQFTYDYWGQGTLVTVSS	high polyreactivity
QVQLVESWGGLVQAGGSLRLSCAASGFTFRYYAMGWYRQAPGKERELVAAITGSGTRTYYADSVKGRFTISRDNAKNTVYLQMNSLKPEDTAVYYCNAPRQPRWFDYWGQGTQVTVSS	high polyreactivity
QVQLVESGGGLVQAGGSLRLSCAASGSIFVYNAMGWYRHAPGTERELVAAISRRGGSTYYADSVKGRFTISRDNAKNTVYLQMNSLKPEDTAVYYCAAFASATRYDYWGQGTQVTVSS	high polyreactivity
QVQLVESGGGLVQAGGSLRLSCAASGSTFRTNTRGWYRQAPGKERELVAAITKSGGSTYYADSVKGRFTISRDNAKNTVYLQMNSLKPEDTAVYYCAARVLYRSGLRGDYWGQGTQVTVSS	high polyreactivity
QVQLVESGGGLVQAGGSLRLSCAASGFIFHTYAMGWYRQAPGKERELVAAISGGTSSTYYADSVKGRFTISRDNAKNTVYLQMNSLKPEDTAVYYCAARSRRGGYPRYYYWGQGTQVTVSS	high polyreactivity
QVQLVESGGGLVRAGGSLRLSCAASGSTFGENAMGWYRQAPGKERELVAAISDSGGDTYYADSVKGRFTISRDNAKNTVYLQMNSLKPEDTAVYYCAADRYGYWYAYYSWGQGTQVTVSS	low polyreactivity
QVQLVESGGGLVQAGGSLRLSCAASGYTFGHYVMGWYRQAPGKERELVAAISRSGGSTYYADSVKGRFTISRDNAKNTVYLQMNSLKPEDTAVYYCARGRIGGGAPGDKSSLNYYYWGQGTQVTVSS	high polyreactivity
QVQLVESGGGLVQAGGSLRLSCAATGIIFDSYTMGWYRQAPGKERELVAAISVSGGSTYYADSVKVRFTISRDNAKNTVYLQMNSLKPEDTAVYYCAARGYAFNYMWPFNYWGQGTQVTVSS	low polyreactivity
